This is an account of results in patent US7569660 (UNIVERSITY OF CHICAGO, dated 2009).

This data set deals with the molecule itself.

B1: NM R2E2 repeat expansion variant (other)
chain: MSDSNQGNNQQNYQQYSQNGNQQQGNNRYQGYQAYNAQAQPAGGYYQNYQGYSGYQQGGYQQYNPQGGYQQYNPQGGYQQYNPDAGYQQQYNPQGGYQQYNPQGGYQQQFNPQGGRGNYKNFNYNNNLQGYQAGFQPQSQGMSLNDFQKQQKQAAPKPKKTLKLVSSSGIKLANATKKVGTKPAESDKKEEEKSAETKEPTKEPTKVEEPVKKEEKPVQTEEKTEEKSELPKVEDLKISESTHNTNNANVTSADALIKEQEEEVDDEVVND
As to B1, the “rate of conversion to a β-sheet rich structure relative to wild-type NM” value is ~2 fold.
